This note sets out measurements from paper PMC10536470, “Reducing the virulence of Pseudomonas aeruginosa by using multiple quorum-quenching enzymes” (Journal of Industrial Microbiology & Biotechnology, 2023).

The series deals with CCCCCCCCCC(=O)CC(=O)N[C@H]1CCOC1=O. In words: purified protein. It counts as biochemical, Chryseobacterium sp. StRB126. The note with it: bicine 2.5 mM pH 8.0, 50 mM NaCl, 0.2 mM ZnCl2, 0.5% DMSO, 30 °C, substrate 0.2-2 mM.

Consider AidC (Chryseobacterium sp. StRB126), for which the Km was 560 ± 10 µM and the kcat came to 250 ± 18 s⁻¹.

By Km is commonly meant the concentration of substrate that gives half-maximal velocity. What is called kcat is the number of substrate molecules converted per active site and unit of time at saturation.
